{"source": "the RNAGym collection of RNA variant scans (doi:10.1093/molbev/msab373)", "parents": {"B1": {"name": "Azoarcus group I ribozyme (parent)", "chain": "GUGCCUUGCGCCGGGAAACCACGCAAGGGAUGGUGUCAAAUUCGGCGAAACCUAAGCGCCCGCCCGGGCGUAUGGCAACGCCGAGCCAAGCUUCGGCGCCUGCGCCGAUGAAGGUGUAGAGACUAGACGGCACCCACCUAAGGCAAACGCUAUGGUGAAGGCAUAGUCCAGGGAGUGGCGAAAGUCACACAAACCGG"}}}
{"variants_of": "B1", "experiment": "reverse-splicing fitness (ratio to wild type); higher = more active; in vitro selection; Mg2+ level not given", "in_short": "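An in vitro group I ribozyme library with randomized positions was T7-transcribed and gel-purified. In triplicate, 10 pmol RNA in EPPS pH 7.5 was reacted with 50 pmoles of a 30-nt RNA substrate for 1 h at 37 °C across several added MgCl2 levels (1–48 mM), then stopped with EDTA. Products were reverse transcribed from a substrate-complementary primer, PCR-amplified and sequenced (HiSeq 4000). Fitness is a variant's read proportion after selection over that before, normalised to wild type.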"}
{"variant": "GUGCCUUGCGCCGGGAAACCACGCAAGGGAUGGUGUCAAAUUCGGCGAAACCUAAGCGCCCGCCCGGGCGUAUGGCAACGCGGAGCCAAGCUUCGGCGCCUGCGCCGAUGAAGGUGUAGAGACUAGACGGCACCCACCUAAGGCCAACGCUAUGGUGAAGGCAUAGUCAAGGGAGAGGCGAAAGUCACACAAACCGG", "note": "[C82G A145C C169A U176A]", "reverse-splicing fitness": 0.0121}
{"variant": "GUGCCUUGCGCCGGGAAACCACGCAAGGGAUGGUGUCAAAUUCGGCGAAACCUAAGCGCCCGCCCGGGCGUAUGGCAACGCGGAGCCAAGCUUCGGCGCCUGCGCCGAUGAAGGUGUAGAGACUAGACGGCACCCACCUAAGGCCAACGCUAUGGUGAAGGCAUAGUCAAGGGAGGGGCGAAAGUCACACAAACCGG", "note": "[C82G A145C C169A U176G]", "reverse-splicing fitness": 0.00481}
{"variant": "GUGCCUUGCGCCGGGAAACCACGCAAGGGAUGGUGUCAAAUUCGGCGAAACCUAAGCGCCCGCCCGGGCGUAUGGCAACGCGGAGCCAAGCUUCGGCGCCUGCGCCGAUGAAGGUGUAGAGACUAGACGGCACCCACCUAAGGCCAACGCUAUGGUGAAGGCAUAGUCAAGGGAGCGGCGAAAGUCACACAAACCGG", "note": "[C82G A145C C169A U176C]", "reverse-splicing fitness": 0.00541}
{"variant": "GUGCCUUGCGCCGGGAAACCACGCAAGGGAUGGUGUCAAAUUCGGCGAAACCUAAGCGCCCGCCCGGGCGUAUGGCAACGCGGAGCCAAGCUUCGGCGCCUGCGCCGAUGAAGGUGUAGAGACUAGACGGCACCCACCUAAGGCCAACGUUAUGGUGAAGGCAUAGUCAAGGGAGAGGCGAAAGUCACACAAACCGG", "note": "[C82G A145C C150U C169A U176A]", "reverse-splicing fitness": 0.0111}
{"variant": "GUGCCUUGCGCCGGGAAACCACGCAAGGGAUGGUGUCAAAUUCGGCGAAACCUAAGCGCCCGCCCGGGCGUAUGGCAACGCGGAGCCAAGCUUCGGCGCCUGCGCCGAUGAAGGUGUAGAGACUAGACGGCACCCACCUAAGGCCAACGUUAUGGUGAAGGCAUAGUCAAGGGAGCGGCGAAAGUCACACAAACCGG", "note": "[C82G A145C C150U C169A U176C]", "reverse-splicing fitness": 0.00579}
{"variant": "GUGCCUUGCGCCGGGAAACCACGCAAGGGAUGGUGUCAAAUUCGGCGAAACCUAAGCGCCCGCCCGGGCGUAUGGCAACGCGGAGCCAAGCUUCGGCGCCUGCGCCGAUGAAGGUGUAGAGACUAGACGGCACCCACCUAAGGCCAACGUUAUGGUGAAGGCAUAGUCAAGGGAGGGGCGAAAGUCACACAAACCGG", "note": "[C82G A145C C150U C169A U176G]", "reverse-splicing fitness": 0.00476}
{"variant": "GUGCCUUGCGCCGGGAAACCACGCAAGGGAUGGUGUCAAAUUCGGCGAAACCUAAGCGCCCGCCCGGGCGUAUGGCAACGCGGAGCCAAGCUUCGGCGCCUGCGCCGAUGAAGGUGUAGAGACUAGACGGCACCCACCUAAGGCCAACGUUAUGGUGAAGGCAUAGUCGAGGGAGUGGCGAAAGUCACACAAACCGG", "note": "[C82G A145C C150U C169G]", "reverse-splicing fitness": 0.00731}
{"variant": "GUGCCUUGCGCCGGGAAACCACGCAAGGGAUGGUGUCAAAUUCGGCGAAACCUAAGCGCCCGCCCGGGCGUAUGGCAACGCGGAGCCAAGCUUCGGCGCCUGCGCCGAUGAAGGUGUAGAGACUAGACGGCACCCACCUAAGGCCAACGUUAUGGUGAAGGCAUAGUCAAGGGAGUGGCGAAAGUCACACAAACCGG", "note": "[C82G A145C C150U C169A]", "reverse-splicing fitness": 0.00797}
{"variant": "GUGCCUUGCGCCGGGAAACCACGCAAGGGAUGGUGUCAAAUUCGGCGAAACCUAAGCGCCCGCCCGGGCGUAUGGCAACGCGGAGCCAAGCUUCGGCGCCUGCGCCGAUGAAGGUGUAGAGACUAGACGGCACCCACCUAAGGCCAACGUUAUGGUGAAGGCAUAGUCUAGGGAGUGGCGAAAGUCACACAAACCGG", "note": "[C82G A145C C150U C169U]", "reverse-splicing fitness": 0.00975}
{"variant": "GUGCCUUGCGCCGGGAAACCACGCAAGGGAUGGUGUCAAAUUCGGCGAAACCUAAGCGCCCGCCCGGGCGUAUGGCAACGCGGAGCCAAGCUUCGGCGCCUGCGCCGAUGAAGGUGUAGAGACUAGACGGCACCCACCUAAGGCCAACGGUAUGGUGAAGGCAUAGUCGAGGGAGCGGCGAAAGUCACACAAACCGG", "note": "[C82G A145C C150G C169G U176C]", "reverse-splicing fitness": 0.00656}
{"variant": "GUGCCUUGCGCCGGGAAACCACGCAAGGGAUGGUGUCAAAUUCGGCGAAACCUAAGCGCCCGCCCGGGCGUAUGGCAACGCGGAGCCAAGCUUCGGCGCCUGCGCCGAUGAAGGUGUAGAGACUAGACGGCACCCACCUAAGGCCAACGGUAUGGUGAAGGCAUAGUCGAGGGAGGGGCGAAAGUCACACAAACCGG", "note": "[C82G A145C C150G C169G U176G]", "reverse-splicing fitness": 0.0054}
{"variant": "GUGCCUUGCGCCGGGAAACCACGCAAGGGAUGGUGUCAAAUUCGGCGAAACCUAAGCGCCCGCCCGGGCGUAUGGCAACGCGGAGCCAAGCUUCGGCGCCUGCGCCGAUGAAGGUGUAGAGACUAGACGGCACCCACCUAAGGCCAACGUUAUGGUGAAGGCAUAGUCCAGGGAGUGGCGAAAGUCACACAAACCGG", "note": "[C82G A145C C150U]", "reverse-splicing fitness": 0.0965}
{"variant": "GUGCCUUGCGCCGGGAAACCACGCAAGGGAUGGUGUCAAAUUCGGCGAAACCUAAGCGCCCGCCCGGGCGUAUGGCAACGCGGAGCCAAGCUUCGGCGCCUGCGCCGAUGAAGGUGUAGAGACUAGACGGCACCCACCUAAGGCCAACGUUAUGGUGAAGGCAUAGUCGAGGGAGCGGCGAAAGUCACACAAACCGG", "note": "[C82G A145C C150U C169G U176C]", "reverse-splicing fitness": 0.00942}
{"variant": "GUGCCUUGCGCCGGGAAACCACGCAAGGGAUGGUGUCAAAUUCGGCGAAACCUAAGCGCCCGCCCGGGCGUAUGGCAACGCGGAGCCAAGCUUCGGCGCCUGCGCCGAUGAAGGUGUAGAGACUAGACGGCACCCACCUAAGGCCAACGUUAUGGUGAAGGCAUAGUCGAGGGAGAGGCGAAAGUCACACAAACCGG", "note": "[C82G A145C C150U C169G U176A]", "reverse-splicing fitness": 0.019}
{"variant": "GUGCCUUGCGCCGGGAAACCACGCAAGGGAUGGUGUCAAAUUCGGCGAAACCUAAGCGCCCGCCCGGGCGUAUGGCAACGCGGAGCCAAGCUUCGGCGCCUGCGCCGAUGAAGGUGUAGAGACUAGACGGCACCCACCUAAGGCCAACGUUAUGGUGAAGGCAUAGUCGAGGGAGGGGCGAAAGUCACACAAACCGG", "note": "[C82G A145C C150U C169G U176G]", "reverse-splicing fitness": 0.00533}
